Experiments:
[1] = target: [Alexa488]-QnrB1 (QnrB1-His, N-terminally labelled with AlexaFluor 488); experiment: fluorescence polarisation; as a1 but subunits with 1 mM ADPNP, incubated for an additional 1 h at room temperature with addition of 2 mM MgCl2
[2] = target: [Alexa488]-QnrB1 (QnrB1-His, N-terminally labelled with AlexaFluor 488); experiment: fluorescence polarisation; fluorescence anisotropy; 50 nM Alexa488-labelled QnrB1 mixed with gyrase subunit(s) in EMSA buffer (30 mM Tris-Cl pH 7.5, 75 mM KCl, 6% glycerol, 2 mM MgCl2, 1 mM DTT), 10 min at room temperature; one site specific binding fit
[3] = target: E. coli DNA gyrase A2B2 complex (E. coli) (UniProt P0AES4)
[4] = target: GyrB 43 kDa domain (GyrB43), N-terminal ATPase-transducer domain of E. coli GyrB (E. coli)
[5] = target: E. coli DNA gyrase subunit B, full-length untagged (E. coli) (UniProt P0AES6)
[6] = target: GyrB 43 kDa domain (GyrB43), N-terminal ATPase-transducer domain of E. coli GyrB (E. coli); remark: listed apart in the source
[7] = target: E. coli DNA gyrase A2B2 complex (E. coli) (UniProt P0AES4); experiment: native gel or EMSA; 20 nM 147 bp pBR322 dsDNA fragment with 0.2 μM reconstituted gyrase in EMSA buffer, QnrB1 added as indicated; 30 min at 25°C; 6% polyacrylamide gel in TBM; IC50 = QnrB1 concentration that halves the bound DNA
[8] = target: Gyrase (Escherichia coli) (UniProt P0AES4); conditions: cited from earlier work

Row | Substance | Kd [1] [nM] | Kd [2] [nM] | other results
1 | E. coli DNA gyrase A2B2 complex (from UniProt P0AES4 1-875; P0AES6 1-804) | 1780 | 80 | 
2 | E. coli DNA gyrase subunit A, full-length untagged (from UniProt P0AES4 1-875) (natural protein) |  | 3900 | 
3 | E. coli DNA gyrase subunit B, full-length untagged (from UniProt P0AES6 1-804) (natural protein) | 3800 | 2530 | 
4 | GyrB 43 kDa domain (GyrB43), N-terminal ATPase-transducer domain of E. coli GyrB (domain or fragment) | 12200 | 1770 | 
5 | QnrB1 with a C-terminal 6xHis tag (wild type, unlabelled) (natural protein) |  |  | DNA-independent ATP hydrolysis rate of 50 nM gyrase (A2B2) with 5 μM QnrB1 [3]: 3 fold; ATPase reaction rate of 4 μM GyrB43 with 5 μM QnrB1 against no QnrB1 [4]: 17 fold; ATPase activity of the full-length GyrB subunit with QnrB1 (not shown) [5]: < 2 fold; QnrB1-dependent activation of GyrB43 ATPase activity (4 μM GyrB43, 1 mM ATP), Km for QnrB1 of a Michaelis-Menten fit [6]: 3.61 µM; IC50 [7]: 10900 nM
6 | YacG (from UniProt C4ZRJ5) |  |  | Ki [8]: 35 nM

Reference: paper PMC7897471
